± gives the standard deviation of the averaged measurements.
Assay: total protein half-life in vivo (active degradation + dilution); higher = more stable protein
[1] = E. coli NCM3722 delta-clpP delta-lon delta-hslV, growth: N-lim chemostat, doubling time 6 h
[2] = E. coli NCM3722 delta-clpP, growth: N-lim chemostat, doubling time 6 h
[3] = E. coli NCM3722 delta-hslV, growth: N-lim chemostat, doubling time 6 h
[4] = E. coli NCM3722 delta-lon, growth: N-lim chemostat, doubling time 6 h
[5] = E. coli NCM3722 delta-smpB, growth: N-lim chemostat, doubling time 6 h
[6] = wild type E. coli NCM3722, growth: C-lim chemostat, doubling time 3 h
[7] = wild type E. coli NCM3722, growth: C-lim chemostat, doubling time 6 h
[8] = wild type E. coli NCM3722, growth: C-lim chemostat, doubling time 12 h
[9] = wild type E. coli NCM3722, growth: N-lim chemostat, doubling time 6 h
[10] = wild type E. coli NCM3722, growth: N-lim chemostat, doubling time 12 h
[11] = wild type E. coli NCM3722, growth: P-lim chemostat, doubling time 6 h
[12] = wild type E. coli NCM3722, growth: P-lim chemostat, doubling time 12 h

Sequence | total protein half-life in vivo [1] | total protein half-life in vivo [2] | total protein half-life in vivo [3] | total protein half-life in vivo [4] | total protein half-life in vivo [5] | total protein half-life in vivo [6] | total protein half-life in vivo [7] | total protein half-life in vivo [8] | total protein half-life in vivo [9] | total protein half-life in vivo [10] | total protein half-life in vivo [11] | total protein half-life in vivo [12]
MDMDLNNRLTEDETLEQAYDIFLELAADNLDPADVLLFNLQFEERGGAELFDPAEDWQEHVDFDLNPDFFAEVVIGLADSEDGEINDVFARILLCREKDHKLCHIIWRE [P0A8L7] | 5.64 ± 0.096 h | 4.35 ± 0.49 h | 3.78 h | 5.055 ± 0.0098 h | 3.64 h | 2.74 ± 0.24 h | 5.72 ± 0.71 h | 8.89 h | 3.83 h | 7.29 ± 0.12 h | > 8 h | 11.2 ± 3.8 h
MDMHSGTFNPQDFAWQGLTLTPAAAIHIRELVAKQPGMVGVRLGVKQTGCAGFGYVLDSVSEPDKDDLLFEHDGAKLFVPLQAMPFIDGTEVDFVREGLNQIFKFHNPKAQNECGCGESFGV | 4.64 ± 0.11 h | 2.79 h | – | 3.64 h | 2.14 h | 1.94 ± 0.049 h | 3.99 ± 0.5 h | 4.5 h | 1.86 ± 0.16 h | 2.58 h | 2.69 h | 4.79 ± 0.6 h
MDNAVDRHVFYISDGTAITAEVLGHAVMSQFPVTISSITLPFVENESRARAVKDQIDAIYHQTGVRPLVFYSIVLPEIRAIILQSEGFCQDIVQALVAPLQQEMKLDPTPIAHRTHGLNPNNLNKYDARIAAIDYTLAHDDGISLRNLDQAQVILLGVSRCGKTPTSLYLAMQFGIRAANYPFIADDMDNLVLPASLKPLQHKLFGLTIDPERLAAIREERRENSRYASLRQCRMEVAEVEALYRKNQIPWINSTNYSVEEIATKILDIMGLSRRMY [P0A8A4] | 5.48 ± 1.3 h | 4.186 ± 0.013 h | 4.0273 ± 0.0032 h | 4.39 ± 0.15 h | 3.98 ± 0.32 h | 3.15 ± 0.21 h | 5.64 ± 0.63 h | 9.92 ± 1.4 h | 4.1527 ± 0.0038 h | 6.76 ± 0.45 h | 5.48 ± 0.51 h | 10.7 ± 0.8 h
MDQAGIIRDLLIWLEGHLDQPLSLDNVAAKAGYSKWHLQRMFKDVTGHAIGAYIRARRLSKSAVALRLTARPILDIALQYRFDSQQTFTRAFKKQFAQTPALYRRSPEWSAFGIRPPLRLGEFTMPEHKFVTLEDTPLIGVTQSYSCSLEQISDFRHEMRYQFWHDFLGNAPTIPPVLYGLNETRPSQDKDDEQEVFYTTALAQDQADGYVLTGHPVMLQGGEYVMFTYEGLGTGVQEFILTVYGTCMPMLNLTRRKGQDIERYYPAEDAKAGDRPINLRCELLIPIRR [P0ACI0] | 5.25 ± 0.62 h | 5.39 ± 0.29 h | 5.7 ± 1.1 h | 5.49 ± 0.38 h | 5.37 ± 0.28 h | 2.92 ± 0.065 h | 6.47 ± 0.27 h | 11.3 ± 0.12 h | 5.15 ± 0.4 h | 9.41 ± 0.68 h | 5.31 ± 0.06 h | 11.8 ± 0.37 h
MDQKLLTDFRSELLDSRFGAKAISTIAESKRFPLHEMRDDVAFQIINDELYLDGNARQNLATFCQTWDDENVHKLMDLSINKNWIDKEEYPQSAAIDLRCVNMVADLWHAPAPKNGQAVGTNTIGSSEACMLGGMAMKWRWRKRMEAAGKPTDKPNLVCGPVQICWHKFARYWDVELREIPMRPGQLFMDPKRMIEACDENTIGVVPTFGVTYTGNYEFPQPLHDALDKFQADTGIDIDMHIDAASGGFLAPFVAPDIVWDFRLPRVKSISASGHKFGLAPLGCGWVIWRDEEALPQELVFNVDYLGGQIGTFAINFSRPAGQVIAQYYEFLRLGREGYTKVQNASYQVAAYLADEIAKLGPYEFICTGRPDEGIPAVCFKLKDGEDPGYTLYDLSERLRLRGWQVPAFTLGGEATDIVVMRIMCRRGFEMDFAELLLEDYKASLKYLSDHPKLQGIAQQNSFKHT | 5.86 ± 0.071 h | – | – | 5.71 ± 0.19 h | 5.91 ± 0.41 h | 3.71 h | 6.55 ± 0.6 h | > 16 h | 5.53 h | 9.35 ± 0.68 h | 6.024 ± 0.042 h | 12.1 ± 1.2 h
MDQTYSLESFLNHVQKRDPNQTEFAQAVREVMTTLWPFLEQNPKYRQMSLLERLVEPERVIQFRVVWVDDRNQIQVNRAWRVQFSSAIGPYKGGMRFHPSVNLSILKFLGFEQTFKNALTTLPMGGGKGGSDFDPKGKSEGEVMRFCQALMTELYRHLGADTDVPAGDIGVGGREVGFMAGMMKKLSNNTACVFTGKGLSFGGSLIRPEATGYGLVYFTEAMLKRHGMGFEGMRVSVSGSGNVAQYAIEKAMEFGARVITASDSSGTVVDESGFTKEKLARLIEIKASRDGRVADYAKEFGLVYLEGQQPWSLPVDIALPCATQNELDVDAAHQLIANGVKAVAEGANMPTTIEATELFQQAGVLFAPGKAANAGGVATSGLEMAQNAARLGWKAEKVDARLHHIMLDIHHACVEHGGEGEQTNYVQGANIAGFVKVADAMLAQGVI | 3.53 ± 0.36 h | 1.97 ± 0.1 h | 1.8 ± 0.11 h | 2.13 ± 0.14 h | 2.14 ± 0.08 h | 2.94 ± 0.19 h | 4.66 ± 0.28 h | 7.29 ± 0.52 h | 1.88 ± 0.073 h | 2.61 ± 0.4 h | 5.35 ± 0.14 h | 9.48 ± 0.6 h
MDRIIQSPGKYIQGADVINRLGEYLKPLAERWLVVGDKFVLGFAQSTVEKSFKDAGLVVEIAPFGGECSQNEIDRLRGIAETAQCGAILGIGGGKTLDTAKALAHFMGVPVAIAPTIASTDAPCSALSVIYTDEGEFDRYLLLPNNPNMVIVDTKIVAGAPARLLAAGIGDALATWFEARACSRSGATTMAGGKCTQAALALAELCYNTLLEEGEKAMLAAEQHVVTPALERVIEANTYLSGVGFESGGLAAAHAVHNGLTAIPDAHHYYHGEKVAFGTLTQLVLENAPVEEIETVAALSHAVGLPITLAQLDIKEDVPAKMRIVAEAACAEGETIHNMPGGATPDQVYAALLVADQYGQRFLQEWE [P0A9S5] | 4.72 ± 0.17 h | 4.2 ± 0.78 h | 4.13 ± 0.15 h | 4.432 ± 0.034 h | 3.52 ± 0.49 h | 3.07 ± 0.084 h | 5.75 ± 0.4 h | 11.7 ± 0.7 h | 4.8 ± 0.91 h | 6.5 ± 0.44 h | 6.33 ± 0.13 h | 13 ± 0.35 h

— the supplement of paper PMC11246515
